Sequences and labels used below:
B1: 14-3-3 protein sigma (Homo sapiens), P31947 (parent)
chain: MERASLIQKAKLAEQAERYEDMAAFMKGAVEKGEELSCEERNLLSVAYKNVVGGQRAAWRVLSSIEQKSNEEGSEEKGPEVREYREKVETELQGVCDTVLGLLDSHLIKEAGDAESRVFYLKMKGDYYRYLAEVATGDDKKRIIDSARSAYQEAMDISKKEMPPTNPIRLGLALNFSVFHYEIANSPEEAISLAKTTFDEAMADLHTLSEDSYKDSTLIMQLLRDNLTLWTADNAGEEGGEAPQEPQS
partner: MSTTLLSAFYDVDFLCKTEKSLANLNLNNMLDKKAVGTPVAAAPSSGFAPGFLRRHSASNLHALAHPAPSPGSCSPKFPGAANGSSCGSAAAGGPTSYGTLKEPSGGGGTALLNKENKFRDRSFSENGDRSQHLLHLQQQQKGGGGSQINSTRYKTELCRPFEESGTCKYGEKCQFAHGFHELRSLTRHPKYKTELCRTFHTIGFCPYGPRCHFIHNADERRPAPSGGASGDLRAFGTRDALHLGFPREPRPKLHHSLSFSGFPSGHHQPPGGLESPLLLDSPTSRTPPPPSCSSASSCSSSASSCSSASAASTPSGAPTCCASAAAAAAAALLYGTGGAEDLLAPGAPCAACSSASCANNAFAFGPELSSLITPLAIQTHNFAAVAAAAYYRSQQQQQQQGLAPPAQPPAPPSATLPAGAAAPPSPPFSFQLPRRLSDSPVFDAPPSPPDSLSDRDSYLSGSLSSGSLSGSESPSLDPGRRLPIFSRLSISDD
B2: Kinesin light chain 3 (Homo sapiens), Q6P597 (parent)
chain: MSVQVAAPGSAGLGPERLSPEELVRQTRQVVQGLEALRAEHHGLAGHLAEALAGQGPAAGLEMLEEKQQVVSHSLEAIELGLGEAQVLLALSAHVGALEAEKQRLRSQARRLAQENVWLREELEETQRRLRASEESVAQLEEEKRHLEFLGQLRQYDPPAESQQSESPPRRDSLASLFPSEEEERKGPEAAGAAAAQQGGYEIPARLRTLHNLVIQYAGQGRYEVAVPLCRQALEDLERSSGHCHPDVATMLNILALVYRDQNKYKEATDLLHDALQIREQTLGPEHPAVAATLNNLAVLYGKRGRYREAEPLCQRALEIREKVLGADHPDVAKQLNNLALLCQNQGKFEDVERHYARALSIYEALGGPHDPNVAKTKNNLASAYLKQNKYQQAEELYKEILHKEDLPAPLGAPNTGTAGDAEQALRRSSSLSKIRESIRRGSEKLVSRLRGEAAAGAAGMKRAMSLNTLNVDAPRAPGTQFPSWHLDKAPRTLSASTQDLSPH
partner: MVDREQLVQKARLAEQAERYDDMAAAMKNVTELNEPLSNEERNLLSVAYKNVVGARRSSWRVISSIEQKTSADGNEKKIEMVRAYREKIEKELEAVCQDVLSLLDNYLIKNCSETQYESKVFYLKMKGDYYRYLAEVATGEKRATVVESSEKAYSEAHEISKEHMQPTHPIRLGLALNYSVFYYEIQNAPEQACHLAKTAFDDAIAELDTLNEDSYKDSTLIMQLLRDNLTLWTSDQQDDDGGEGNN
B3: Kinesin-like protein KIF1C (Homo sapiens), O43896 (parent)
chain: MAGASVKVAVRVRPFNARETSQDAKCVVSMQGNTTSIINPKQSKDAPKSFTFDYSYWSHTSTEDPQFASQQQVYRDIGEEMLLHAFEGYNVCIFAYGQTGAGKSYTMMGRQEPGQQGIVPQLCEDLFSRVSENQSAQLSYSVEVSYMEIYCERVRDLLNPKSRGSLRVREHPILGPYVQDLSKLAVTSYADIADLMDCGNKARTVAATNMNETSSRSHAVFTIVFTQRCHDQLTGLDSEKVSKISLVDLAGSERADSSGARGMRLKEGANINKSLTTLGKVISALADMQSKKRKSDFIPYRDSVLTWLLKENLGGNSRTAMIAALSPADINYEETLSTLRYADRTKQIRCNAIINEDPNARLIRELQEEVARLRELLMAQGLSASALEGLKTEEGSVRGALPAVSSPPAPVSPSSPTTHNGELEPSFSPNTESQIGPEEAMERLQETEKIIAELNETWEEKLRKTEALRMEREALLAEMGVAVREDGGTVGVFSPKKTPHLVNLNEDPLMSECLLYHIKDGVTRVGQVDMDIKLTGQFIREQHCLFRSIPQPDGEVVVTLEPCEGAETYVNGKLVTEPLVLKSGNRIVMGKNHVFRFNHPEQARLERERGVPPPPGPPSEPVDWNFAQKELLEQQGIDIKLEMEKRLQDLENQYRKEKEEADLLLEQQRLYADSDSGDDSDKRSCEESWRLISSLREQLPPTTVQTIVKRCGLPSSGKRRAPRRVYQIPQRRRLQGKDPRWATMADLKMQAVKEICYEVALADFRHGRAEIEALAALKMRELCRTYGKPDGPGDAWRAVARDVWDTVGEEEGGGAGSGGGSEEGARGAEVEDLRAHIDKLTGILQEVKLQNSSKDRELQALRDRMLRMERVIPLAQDHEDENEEGGEVPWAPPEGSEAAEEAAPSDRMPSARPPSPPLSSWERVSRLMEEDPAFRRGRLRWLKQEQLRLQGLQGSGGRGGGLRRPPARFVPPHDCKLRFPFKSNPQHRESWPGMGSGEAPTPLQPPEEVTPHPATPARRPPSPRRSHHPRRNSLDGGGRSRGAGSAQPEPQHFQPKKHNSYPQPPQPYPAQRPPGPRYPPYTTPPRMRRQRSAPDLKESGAAV
partner: B2 partner
B4: 14-3-3 protein sigma (Homo sapiens), P31947 (parent)
chain: B1 chain
partner: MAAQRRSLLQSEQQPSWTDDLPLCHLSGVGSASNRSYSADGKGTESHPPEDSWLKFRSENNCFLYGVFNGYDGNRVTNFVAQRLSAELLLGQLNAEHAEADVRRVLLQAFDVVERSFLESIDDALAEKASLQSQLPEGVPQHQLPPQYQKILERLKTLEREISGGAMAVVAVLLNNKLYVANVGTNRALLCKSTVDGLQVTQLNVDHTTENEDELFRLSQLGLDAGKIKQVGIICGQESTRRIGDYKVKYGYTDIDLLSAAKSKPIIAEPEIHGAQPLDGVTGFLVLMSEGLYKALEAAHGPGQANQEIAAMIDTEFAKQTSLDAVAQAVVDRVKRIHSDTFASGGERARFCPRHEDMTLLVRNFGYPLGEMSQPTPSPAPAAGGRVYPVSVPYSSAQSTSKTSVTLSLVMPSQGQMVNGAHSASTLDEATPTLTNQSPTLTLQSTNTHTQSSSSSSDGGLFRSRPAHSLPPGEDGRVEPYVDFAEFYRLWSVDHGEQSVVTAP
B5: Serine/arginine-rich splicing factor 10 (Homo sapiens), O75494 (parent)
chain: MSRYLRPPNTSLFVRNVADDTRSEDLRREFGRYGPIVDVYVPLDFYTRRPRGFAYVQFEDVRDAEDALHNLDRKWICGRQIEIQFAQGDRKTPNQMKAKEGRNVYSSSRYDDYDRYRRSRSRSYERRRSRSRSFDYNYRRSYSPRNSRPTGRPRRSRSHSDNDRFKHRNRSFSRSKSNSRSRSKSQPKKEMKAKSRSRSASHTKTRGTSKTDSKTHYKSGSRYEKESRKKEPPRSKSQSRSQSRSRSKSRSRSWTSPKSSGH
partner: B2 partner

The variants in the first experiment derive from B1. Conditions: with tisd_human ZFP36L2, P47974.
MERASLIQKAKLAEQAERYEDMAAFMKGAVEKGEELSCEERNLLSVAYENVVGGQEAAWRVLSSIEQKSNEEGSEEKGPEVREYREKVETELQGVCDTVLGLLDSHLIKEAGDAESRVFYLKMKGDYYRYLAEVATGDDKKRIIDSARSAYQEAMDISKKEMPPTNPIRLGLALNFSDFHYEIANSPEEAISLAKTTFDEAMADLHTLSEDSYKDSTLIMQLLRDNLTLWTADNAGEEGGEAPQEPQS [K49E;R56E;V178D]: the “effect of a mutation on the interaction” value is given as “decreasing interaction strength”.

In a further experiment the parent is B2. Conditions: with 1433g_human YWHAG.
S431A;S466A;S497A: the “effect of a mutation on the interaction” value is listed as “disrupting interaction strength”.

The variants in a further experiment derive from B3. Conditions: with 1433g_human YWHAG.
In the case of S915A;S1033A;S1092A, the “effect of a mutation on the interaction” value is given as “disrupting interaction strength”.

The variants in a further experiment derive from B4. The note with it: with tab1_human TAB1, Q15750.
MERASLIQKAKLAEQAERYEDMAAFMKGAVEKGEELSCEERNLLSVAYENVVGGQEAAWRVLSSIEQKSNEEGSEEKGPEVREYREKVETELQGVCDTVLGLLDSHLIKEAGDAESRVFYLKMKGDYYRYLAEVATGDDKKRIIDSARSAYQEAMDISKKEMPPTNPIRLGLALNFSDFHYEIANSPEEAISLAKTTFDEAMADLHTLSEDSYKDSTLIMQLLRDNLTLWTADNAGEEGGEAPQEPQS [K49E;R56E;V178D]: the “effect of a mutation on the interaction” value is “decreasing interaction strength”.

In the next experiment the parent is B5. The note with it: with 1433g_human YWHAG.
Turning to S121A;S123A;S131A;S133A;S143A;S158A;S160A;S199A;S201A;S249A;S253A;T255A, the “effect of a mutation on the interaction” value is given as “disrupting interaction strength”.

The record behind these values is IntAct's records for PubMed 36931259.
